This is an account of results in publication PMC3049928.

Usually Km stands for the substrate concentration at which the rate is half of its maximum. For orientation: kcat means the maximal rate divided by the concentration of active sites. Broadly, the kcat/Km is the turnover number divided by the Michaelis constant.

Substrate in the data set: Nc1ncnc2c1ncn2[C@@H]1O[C@H](COP(=O)(O)O)[C@@H](OP(=O)(O)O)[C@H]1O
Briefly: purified protein. Format: biochemical, Homo sapiens. The following applies: varied pNPS, no added alcohol, 50 mM phosphate pH 6.2, 37 °C.

B1: SULT1A1 (human phenol sulfotransferase, human sulfotransferase 1A1) (Homo sapiens) (protein)
chain: MELIQDTSRPPLEYVKGVPLIKYFAEALGPLQSFQARPDDLLISTYPKSGTTWVSQILDMIYQGGDLEKCHRAPIFMRVPFLEFKAPGIPSGMETLKDTPAPRLLKTHLPLALLPQTLLDQKVKVVYVARNAKDVAVSYYHFYHMAKVHPEPGTWDSFLEKFMVGEVSYGSWYQHVQEWWELSRTHPVLYLFYEDMKENPKREIQKILEFVGRSLPEETVDFVVQHTSFKEMKKNPMTNYTTVPQEFMDHSISPFMRKGMAGDWKTTFTVAQNERFDADYAEKMAGCSLSFRSEL
As for B1, the Km worked out at 34 ± 6 µM, the kcat worked out at 0.000633 ± 0.000117 s⁻¹ and the kcat/Km turned out to be 18.3 ± 3.33 M⁻¹ s⁻¹.
